For test [1], the system named is rat "angiopoietin-related protein 3" gene. Put plainly: TaqMan PCR quantification of liver angiopoietin-related protein 3 gene expression after bezafibrate in feed. The class given is in vivo, Zucker fatty rats. The following applies: 0.3% in F2 powder feed for seven days, compared to the control group, corrected with 18S ribosome. The text has this:
(§1) For seven days, the antilipemic bezafibrate (manufactured by Sigma) mixed with F2 powder feed (manufactured by Funabashi Noujou) at 0.3% of concentration was administrated to two Zucker fatty rats (purchased from Nihon Charles River) of age 11 weeks.
To the two rats in the control group only F2 powder feed was given. After collecting blood samples from each of the rats under both conditions, the liver thereof was extracted, put in liquid nitrogen immediately to be frozen rapidly, and kept at -80 °C. 5 ml of TRIzol reagent (manufactured by Gibco BRL) were added to 0.1 g of the liver tissue obtained, and it was homogenized on ice using an ultra high-speed homogenizer (Polytoron, manufactured by ckinematica) (at dial 10 for 2 minutes). After incubation for 5 minutes at a room temperature, 1 ml of chloroform was added and mixed vigorously for 15 seconds. […]
A single stranded cDNA was produced according to the following procedures. […] After completion of the reaction, 29 µl of ribonuclease-free purified water was added to each of the samples, and diluted with ribonuclease-free purified water a further 5 times for use in the following quantification. The single-stranded cDNA solution for creation of a calibration-curve was prepared by producing a 5-times serial dilution with ribonuclease-free purified water from the solution for quantification derived from one control sample. […]
A general note: Quantitative PCR measures a nucleic acid by following its amplification.

Test [2] in a line: Concentration of neutral fat in blood after bezafibrate in feed. As to conditions: 0.3% in F2 powder feed for seven days; compared to the control group. The class given is in vivo, Zucker fatty rats.
Description: as §1
To the two rats in the control group only F2 powder feed was given. After collecting blood samples from each of the rats under both conditions, the liver thereof was extracted, put in liquid nitrogen immediately to be frozen rapidly, and kept at -80 °C. 5 ml of TRIzol reagent (manufactured by Gibco BRL) were added to 0.1 g of the liver tissue obtained, and it was homogenized on ice using an ultra high-speed homogenizer (Polytoron, manufactured by ckinematica) (at dial 10 for 2 minutes). After incubation for 5 minutes at a room temperature, 1 ml of chloroform was added and mixed vigorously for 15 seconds.

Test [3] concerns the target lipoprotein lipase (LPL) originated from a rat fat cell (rat) (UniProt Q06000). Put plainly: cell-based or functional assay.
The target in test [4] is hepatic triacylglycerol lipase (HTGL) in mouse plasma after administering heparin intravenously (mouse) (UniProt P27656). Put plainly: cell-based or functional assay.
Test [5] deals with lipoprotein lipase (LPL) in mouse plasma after administering heparin intravenously (mouse) (UniProt P11152). Briefly: cell-based or functional assay.
UniProt P11152, sequence (P11152 28-474 limits assumed): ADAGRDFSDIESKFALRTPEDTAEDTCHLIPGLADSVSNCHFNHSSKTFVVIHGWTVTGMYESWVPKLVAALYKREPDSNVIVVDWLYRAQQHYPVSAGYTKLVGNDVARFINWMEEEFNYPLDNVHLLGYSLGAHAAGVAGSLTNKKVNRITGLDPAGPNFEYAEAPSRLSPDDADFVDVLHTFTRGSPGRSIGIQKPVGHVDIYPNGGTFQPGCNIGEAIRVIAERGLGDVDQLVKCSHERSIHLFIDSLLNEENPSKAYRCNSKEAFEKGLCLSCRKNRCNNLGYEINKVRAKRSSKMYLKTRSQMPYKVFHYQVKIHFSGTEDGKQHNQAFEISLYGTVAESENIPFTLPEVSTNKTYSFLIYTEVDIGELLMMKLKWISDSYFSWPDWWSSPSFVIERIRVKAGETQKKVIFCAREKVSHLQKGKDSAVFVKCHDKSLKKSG

UniProt P27656, sequence (P27656 22-510 limits assumed): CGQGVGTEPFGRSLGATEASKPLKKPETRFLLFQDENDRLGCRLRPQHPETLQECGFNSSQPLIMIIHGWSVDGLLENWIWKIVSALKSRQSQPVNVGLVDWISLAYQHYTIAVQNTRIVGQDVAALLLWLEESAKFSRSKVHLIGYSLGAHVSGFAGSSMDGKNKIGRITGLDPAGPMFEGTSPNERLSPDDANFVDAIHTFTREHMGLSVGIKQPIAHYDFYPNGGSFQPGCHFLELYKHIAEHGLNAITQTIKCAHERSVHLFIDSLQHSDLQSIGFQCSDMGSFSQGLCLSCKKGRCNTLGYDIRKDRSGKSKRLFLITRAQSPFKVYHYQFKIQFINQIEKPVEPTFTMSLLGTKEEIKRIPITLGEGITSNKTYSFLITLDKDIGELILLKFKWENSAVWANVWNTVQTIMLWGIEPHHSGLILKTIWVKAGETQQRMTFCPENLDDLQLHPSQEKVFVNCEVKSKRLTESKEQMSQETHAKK
UniProt Q06000, sequence (Q06000 28-474 limits assumed): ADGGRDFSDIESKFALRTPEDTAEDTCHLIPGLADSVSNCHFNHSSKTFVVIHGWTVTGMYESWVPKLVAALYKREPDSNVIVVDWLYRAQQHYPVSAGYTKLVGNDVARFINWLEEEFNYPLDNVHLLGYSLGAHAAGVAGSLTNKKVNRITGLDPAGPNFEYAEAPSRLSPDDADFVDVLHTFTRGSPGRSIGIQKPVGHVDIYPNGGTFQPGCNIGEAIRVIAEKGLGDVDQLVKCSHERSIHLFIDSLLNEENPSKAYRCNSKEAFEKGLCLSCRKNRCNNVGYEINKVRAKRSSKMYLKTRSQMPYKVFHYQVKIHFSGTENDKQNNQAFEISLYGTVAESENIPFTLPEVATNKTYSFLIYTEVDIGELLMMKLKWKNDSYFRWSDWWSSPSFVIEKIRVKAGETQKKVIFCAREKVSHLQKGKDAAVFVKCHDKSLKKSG

`CC(C)(Oc1ccc(CCNC(=O)c2ccc(Cl)cc2)cc1)C(=O)O` [bezafibrate]: in test [1], the “level of expression of a rat "angiopoietin-related protein 3" gene decreased” value is given as 73%. Further, the “concentration of neutral fat in blood reduced” value in test [2] was 50%.
As for “GST-ARP4N (glutathione-S-transferase connected to the amino terminus of amino acid numbers 26-143 of SEQ ID No. 16, angiopoietin related protein 4) (from UniProt P08515 1-218)”, in test [3], the LPL activity (%) at 1 µg/ml GST-ARP4N (GST 10 µg/ml = 100 %) is 74%, the LPL activity (%) at 2.5 µg/ml GST-ARP4N (GST 10 µg/ml = 100 %) is 61%, the LPL activity (%) at 5 µg/ml GST-ARP4N (GST 10 µg/ml = 100 %) was 34% and the LPL activity (%) at 10 µg/ml GST-ARP4N (GST 10 µg/ml = 100 %) was 16%.
In test [3], “KhAP5 CC/His (N terminal 207 amino acid partial protein of angiopoietin-related protein 3 with a histidine tag inserted after residue 20) (ligand)” returned a relative value of LPL activity (%) at 0 µg/ml KhAP5 CC/His of 100%, a relative value of LPL activity (%) at 1 µg/ml KhAP5 CC/His of 27%, a relative value of LPL activity (%) at 2.5 µg/ml KhAP5 CC/His of 21% and a relative value of LPL activity (%) at 5 µg/ml KhAP5 CC/His of 14%. Further, the relative value of LPL activity (%) at 10 µg/ml KhAP5 CC/His in test [3] amounted to 11%.
In test [3], “human angiopoietin-related protein 3 (polypeptide consisting of amino acid numbers 17-460 of SEQ ID No. 4) (ligand)” yielded a relative value of LPL activity (%) at 0 µg/ml polypeptide of 100%, a relative value of LPL activity (%) at 1 µg/ml polypeptide of 84%, a relative value of LPL activity (%) at 2.5 µg/ml polypeptide of 64% and a relative value of LPL activity (%) at 5 µg/ml polypeptide of 52%. This molecule also had a relative value of LPL activity (%) at 10 µg/ml polypeptide in test [3] of 29%. Also, in test [4], the relative value of HTGL activity (%) at 0 µg/ml polypeptide came to 100%, the relative value of HTGL activity (%) at 1 µg/ml polypeptide is 109%, the relative value of HTGL activity (%) at 2.5 µg/ml polypeptide was 94% and the relative value of HTGL activity (%) at 5 µg/ml polypeptide turned out to be 80%. Besides, the relative value of HTGL activity (%) at 10 µg/ml polypeptide in test [4] turned out to be 64%. In addition, in test [5], the relative value of LPL activity (%) at 0 µg/ml polypeptide worked out at 100%, the relative value of LPL activity (%) at 1 µg/ml polypeptide was found to be 93%, the relative value of LPL activity (%) at 2.5 µg/ml polypeptide was found to be 82% and the relative value of LPL activity (%) at 5 µg/ml polypeptide was found to be 70%. In addition, the relative value of LPL activity (%) at 10 µg/ml polypeptide in test [5] amounted to 49%.
In test [3], “GST-ARP4Full (glutathione-S-transferase connected to the amino terminus of amino acid numbers 26-406 of SEQ ID No. 16, angiopoietin related protein 4) (from UniProt P08515 1-218)” registered a relative value of LPL activity (%) at 1 µg/ml GST-ARP4Full (GST 10 µg/ml = 100 %) of 67%, a relative value of LPL activity (%) at 2.5 µg/ml GST-ARP4Full (GST 10 µg/ml = 100 %) of 30%, a relative value of LPL activity (%) at 5 µg/ml GST-ARP4Full (GST 10 µg/ml = 100 %) of 16% and a relative value of LPL activity (%) at 10 µg/ml GST-ARP4Full (GST 10 µg/ml = 100 %) of 5%.
